Assay [1] deals with T1, Recombinant TLR4/MD2 complex (R&D Systems 3146-TM-050/CF) (UniProt O00206 24-631; Q9Y6Y9 19-160).
T1 construct: Toll-like receptor 4 chain of the bought recombinant TLR4/MD2 complex; neither species nor construct limits are stated; MD2 (lymphocyte antigen 96) chain of the bought recombinant TLR4/MD2 complex; also called TLR4/MD2 receptor; source: bought: R&D Systems
Nature of the assay: SPR; Biacore X100; TLR4/MD2 complex immobilised on a CM5 chip by amine coupling (1,223.9 RU); IFI16 alone 31.25-1,000 nM flowed at 30 μl/min, 25°C, HBS-EP+ buffer; association 120 s, dissociation 180 s; 1:1 binding model. The settings on record: both partners purified. In general terms: Surface plasmon resonance follows binding to a sensor surface in real time, without labels.

The target of assay [2] is T1, Recombinant TLR4/MD2 complex (R&D …). Nature of the assay: SPR; Biacore X100; TLR4/MD2 complex immobilised on a CM5 chip by amine coupling (1,223.9 RU); analyte is IFI16 pre-complexed with LPS-EB (IFI16/LPS-EB complex), 31.25-1,000 nM, 30 μl/min, 25°C, HBS-EP+ buffer; association 120 s, dissociation 180 s; 1:1 binding model. The note with it: both partners purified.

T1 sequence (O00206 24-631, chain 1 of 2): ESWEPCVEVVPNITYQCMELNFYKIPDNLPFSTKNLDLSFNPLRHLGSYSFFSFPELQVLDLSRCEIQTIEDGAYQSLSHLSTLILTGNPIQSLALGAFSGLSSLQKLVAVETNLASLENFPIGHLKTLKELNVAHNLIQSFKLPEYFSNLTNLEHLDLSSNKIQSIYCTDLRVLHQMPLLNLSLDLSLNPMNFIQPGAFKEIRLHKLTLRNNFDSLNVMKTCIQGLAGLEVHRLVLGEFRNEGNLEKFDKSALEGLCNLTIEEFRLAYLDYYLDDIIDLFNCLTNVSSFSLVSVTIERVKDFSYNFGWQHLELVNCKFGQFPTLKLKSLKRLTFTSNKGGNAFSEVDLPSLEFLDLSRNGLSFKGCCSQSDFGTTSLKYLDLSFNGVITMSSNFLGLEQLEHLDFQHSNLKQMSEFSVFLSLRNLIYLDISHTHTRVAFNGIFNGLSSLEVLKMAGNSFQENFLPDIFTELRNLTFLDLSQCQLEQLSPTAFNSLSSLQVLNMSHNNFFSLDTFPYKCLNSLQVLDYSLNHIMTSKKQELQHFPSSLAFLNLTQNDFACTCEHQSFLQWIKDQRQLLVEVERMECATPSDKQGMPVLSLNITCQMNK
T1 sequence (Q9Y6Y9 19-160, chain 2 of 2): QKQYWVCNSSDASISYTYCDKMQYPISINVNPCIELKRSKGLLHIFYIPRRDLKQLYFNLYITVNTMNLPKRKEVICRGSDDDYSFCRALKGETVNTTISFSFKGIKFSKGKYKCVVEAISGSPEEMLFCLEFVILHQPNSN

B1: human recombinant IFI16 protein (natural protein, UniProt Q16666-2 1-729, looked up)
chain: MGKKYKNIVLLKGLEVINDYHFRMVKSLLSNDLKLNLKMREEYDKIQIADLMEEKFRGDAGLGKLIKIFEDIPTLEDLAETLKKEKLKVKGPALSRKRKKEVDATSPAPSTSSTVKTEGAEATPGAQKRKKSTKEKAGPKGSKVSEEQTQPPSPAGAGMSTAMGRSPSPKTSLSAPPNSSSTENPKTVAKCQVTPRRNVLQKRPVIVKVLSTTKPFEYETPEMEKKIMFHATVATQTQFFHVKVLNTSLKEKFNGKKIIIISDYLEYDSLLEVNEESTVSEAGPNQTFEVPNKIINRAKETLKIDILHKQASGNIVYGVFMLHKKTVNQKTTIYEIQDDRGKMDVVGTGQCHNIPCEEGDKLQLFCFRLRKKNQMSKLISEMHSFIQIKKKTNPRNNDPKSMKLPQEQRQLPYPSEASTTFPESHLRTPQMPPTTPSSSFFTKKSEDTISKMNDFMRMQILKEGSHFPGPFMTSIGPAESHPHTPQMPPSTPSSSFLTTLKPRLKTEPEEVSIEDSAQSDLKEVMVLNATESFVYEPKEQKKMFHATVATENEVFRVKVFNIDLKEKFTPKKIIAIANYVCRNGFLEVYPFTLVADVNADRNMEIPKGLIRSASVTPKINQLCSQTKGSFVNGVFEVHKKNVRGEFTYYEIQDNTGKMEVVVHGRLTTINCEEGDKLKLTCFELAPKSGNTGELRSVIHSHIKVIKTRKNKKDILNPDSSMETSPDFFF
notes: IFI16, human, full-length recombinant protein; The domains were cloned in pET30a and made 'following the same procedure as that for the full-length protein'; In assay a3 and in part of a4 the protein was pre-incubated O/N at 4°C with LPS-EB, which is not a protein; also called full-length IFI16; endotoxin-free IFI16; source: recombinant, produced as previously described [24], purified, endotoxins …
By Kd is commonly meant the free concentration of one partner at which half of the binding sites on the other are occupied at equilibrium, for simple one-to-one binding. As a reminder, the koff is the first-order rate constant of dissociation. What is called kon is the rate constant with which the complex forms. B1: in assay [1], the Kd was determined as 677 nM, the koff was determined as 0.00614 s⁻¹ and the kon is 9070 M⁻¹ s⁻¹. In addition, in assay [2], the Kd is 4010 nM, the koff was 0.0143 s⁻¹ and the kon stood at 3570 M⁻¹ s⁻¹.

Source of the values: article PMC7505474, “Toll-like receptor 4-mediated inflammation triggered by extracellular IFI16 is enhanced by lipopolysaccharide binding” (PLoS Pathogens, 2020).
